Test results as given in patent US20150037333A1 (NEXVET AUSTRALIA, published 2015).

Columns and labels:
[1] = molecular target: T1, complement C1q (from normal human serum) (human, UniProt P02745 23-245; P02746 28-253; P02747 29-245); test: C1q binding ELISA; fusion protein on plates coated with canine TNF (4 µg/ml), human serum as source of complement
T1 construct: Native C1q in normal human serum, detected with a C1q reactive polyclonal antibody-HRP conjugate
Protocol: The canine TNFR-HCB, canine TNFR-HCC and human TNFR-canine HCB fusion proteins were incubated with plates pre-coated with canine TNF (4 μg/ml). For comparison, a caninised monoclonal antibody (MAb, canine isotype HCB) with specificity to nerve growth factor (NGF) was incubated with plates coated with NGF. The plates were washed and incubated with normal or heat-killed human serum as a source of complement. Binding of complement C1q was detected using a C1q reactive polyclonal antibody-HRP conjugate.

[2] = molecular target: canine TNF-alpha (canine, UniProt P51742 77-233); test: cell-based or functional assay
Sequence of canine TNF-alpha (P51742 77-233 limits assumed): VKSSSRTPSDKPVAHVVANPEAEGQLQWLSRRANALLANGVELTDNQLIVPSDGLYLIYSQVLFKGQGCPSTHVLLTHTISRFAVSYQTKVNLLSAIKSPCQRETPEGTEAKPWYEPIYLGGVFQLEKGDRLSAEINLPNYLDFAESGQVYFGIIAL

T1 sequence (P02745 23-245 limits assumed, chain 1 of 3): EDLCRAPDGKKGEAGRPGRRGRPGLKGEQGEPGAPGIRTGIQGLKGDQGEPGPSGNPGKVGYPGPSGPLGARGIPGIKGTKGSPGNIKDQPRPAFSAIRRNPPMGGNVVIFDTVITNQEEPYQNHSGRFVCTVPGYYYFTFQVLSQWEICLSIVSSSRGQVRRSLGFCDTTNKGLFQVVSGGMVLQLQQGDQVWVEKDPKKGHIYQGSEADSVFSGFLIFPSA
T1 sequence (P02746 28-253 limits assumed, chain 2 of 3): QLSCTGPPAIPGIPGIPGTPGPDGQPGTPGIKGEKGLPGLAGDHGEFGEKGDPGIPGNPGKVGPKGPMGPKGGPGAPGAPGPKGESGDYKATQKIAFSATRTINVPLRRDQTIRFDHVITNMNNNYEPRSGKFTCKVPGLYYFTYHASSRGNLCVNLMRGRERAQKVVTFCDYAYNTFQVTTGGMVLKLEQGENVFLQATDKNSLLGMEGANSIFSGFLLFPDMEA
T1 sequence (P02747 29-245 limits assumed, chain 3 of 3): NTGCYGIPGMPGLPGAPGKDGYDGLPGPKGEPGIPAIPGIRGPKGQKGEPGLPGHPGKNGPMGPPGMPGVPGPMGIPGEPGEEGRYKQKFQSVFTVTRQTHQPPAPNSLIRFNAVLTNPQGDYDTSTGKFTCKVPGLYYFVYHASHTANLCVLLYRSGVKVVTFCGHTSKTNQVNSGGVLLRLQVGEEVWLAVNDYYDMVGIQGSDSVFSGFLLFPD

Binder | binding result [1] | inhibition of canine TNF-alpha bioactivity (1 ng/ml) in 293-HEK cells with NF-kB-EGFP reporter construct pTRH1; IC50 [2] [ng/ml]
canine TNFR-HCC (caTNFRp50:ca IgGHCC Fc), SEQ ID NO:8 (Fc fusion, Expressed in CHO cells; also called caTNFrecp60-HCC; canine TNFR-HCC fusion protein) LVPHPRNRVKRAILCPQGKYIHPQDDSICCTKCHKGTYLYNDCPGPGLDTDCRECENGTFTASENHLRQCLSCSKCRKEMNQVEISPCTVYRDTVCGCRKNQYRFYWSETLFQCNNCSLCLNGTVQISCQEKQNTICTCHAGFFLREHECVSCVNCKKNTECGKLCLPPVETVKVPQDPGSTAKECECKCNCNNCPCPGCGLLGGPSVFIFPPKPKDILVTARTPTVTCVVVDLDPENPEVQISWFVDSKQVQTANTQPREEQSNGTYRVVSVLPIGHQDWLSGKQFKCKVNNKALPSPIEEIISKTPGQAHQPNVYVLPPSRDEMSKNTVTLTCLVKDFFPPEIDVEWQSNGQQEPESKYRMTPPQLDEDGSYFLYSKLSVDKSRWQRGDTFICAVMHEALHNHYTQISLSHSPGK | no binding | ~1
canine TNFR-HCB (caTNFRp50:ca IgGHCB Fc), SEQ ID NO:7 (Fc fusion, Expressed in CHO cells; also called caTNFrecp60-HCB; canine TNFR-HCB fusion protein) LVPHPRNRVKRAILCPQGKYIHPQDDSICCTKCHKGTYLYNDCPGPGLDTDCRECENGTFTASENHLRQCLSCSKCRKEMNQVEISPCTVYRDTVCGCRKNQYRFYWSETLFQCNNCSLCLNGTVQISCQEKQNTICTCHAGFFLREHECVSCVNCKKNTECGKLCLPPVETVKVPQDPGSTPKRENGRVPRPPDCPKCPAPEMLGGPSVFIFPPKPKDTLLIARTPEVTCVVVDLDPEDPEVQISWFVDGKQMQTAKTQPREEQFNGTYRVVSVLPIGHQDWLKGKQFTCKVNNKALPSPIERTISKARGQAHQPSVYVLPPSREELSKNTVSLTCLIKDFYPPDIDVEWQSNGQQEPESKYRTTPPQLDEDGSYFLYSKLSVDKSRWQRGDTFICAVMHEALHNHYTQESLSHSPGK | no binding | ~1
